Where two headings read alike, the source gives them in different places.

The values below come from patent US9340580B2, “Peptide with multiple epitopes” (priority 2007, dated 2016).

A short description of data set [1]: solubility pre-screen in an aqueous, acidic milieu. The format is physicochemical.
For data set [2], the system named is human MHC class II allotypes. Nature of the data set: competitive MHC class II binding assay, statements over the panel. The settings on record: peptides of reduced purity. From the text: This is a characteristic of promiscuous HLA-DRB1* binders.
This is of significance as purities were seen to vary from 60-90%. This would have a considerable effect on the ability of a peptide to compete if it is relatively impure. […] Therefore, if purity is taken into consideration, they may in fact have an equivalent affinity to a peptide of a higher purity.

In data set [3] the target is T1, human MHC class II allotype HLA-DRB1*1501 (human).
T1 chain 1: not shown
T1 chain 2: not shown

The target of data set [4] is T2, human MHC class II allotype HLA-DRB1*0701 (human).
T2 chain 1: not shown
T2 chain 2: not shown

In data set [5] the target is T3, human MHC class II allotype DQA1*0102/DQB1*0602 (human), P01920.
T3 chain 1: not shown
T3 chain 2: not shown

Data set [6] deals with T4, human MHC class II allotype HLA-DRB1*1101 (human).
T4 chain 1: not shown
T4 chain 2: not shown

In data set [7] the target is T5, human MHC class II allotype HLA-DRB1*1101 (human).
T5 construct: Source and construct of the MHC protein in the assay are not described
Nature of the data set: competitive MHC class II binding assay; competitor control peptide influenza haemagglutinin 307-319.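 Also: each test peptide was scored on how well it displaces the known control binder from each human MHC class II allotype studied.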

Data set [8] has as its target T6, human MHC class II allotype HLA-DRB1*0701 (human).
T6 construct: Source and construct of the MHC protein in the assay are not described
The data set is described as above.

Data set [9] has as its target T7, human MHC class II allotype HLA-DRB1*1501 (human).
T7 construct: Source and construct of the MHC protein in the assay are not described
Nature of the data set: competitive MHC class II binding assay; competitor control peptide myelin basic protein 85-99.

Data set [10] has as its target T8, human MHC class II allotype DQA1*0102/DQB1*0602 (human, UniProt P01920 33-230, limits assumed).
T8 construct: Source and construct of the MHC protein in the assay are not described
T8 MHC II alpha: not shown
T8 MHC II beta: not shown
Nature of the data set: competitive MHC class II binding assay; competitor control peptide human insulin B 1-15.

The target in data set [11] is T9, human MHC class II allotype HLA-DRB1*1301 (human).
T9 construct: Source and construct of the MHC protein in the assay are not described
The data set is described as follows: competitive MHC class II binding assay; competitor control peptide HLA-DQB1*0603 21-36.

Data set [12] deals with T10, human MHC class II allotype HLA-DRB1*0301 (human).
T10 construct: Source and construct of the MHC protein in the assay are not described
The data set is described as follows: competitive MHC class II binding assay; competitor control peptide hsp 65 2-16.

Data set [13] has as its target T11, human MHC class II allotype HLA-DRB1*0101 (human).
T11 construct: Source and construct of the MHC protein in the assay are not described
The data set is described as follows: competitive MHC class II binding assay; competitor control peptide influenza haemagglutinin 307-319.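 Also: each test peptide was scored on how well it displaces the known control binder from each human MHC class II allotype studied.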

Data set [14] addresses T12, human MHC class II allotype HLA-DRB1*0401 (human).
T12 construct: Source and construct of the MHC protein in the assay are not described
The description is as above.

Data set [15] addresses T7, human MHC class II allotype …. The data set is described as follows: competitive MHC class II binding assay, high stringency screen; competitor control peptide myelin basic protein 85-99.

Turning to “DGLEVDVPGIDPNACH (listed as Dermatophagoides pteronyssinus) [HDM23A]”, the Solubility test result in data set [1] is on record as “YES”. For the same molecule, the “binding affinity in the competition assay (in words)” value in data set [2] is listed as “low affinity binding”.

B1: HDM20 (peptide)
peptide: CIIHRGKPFQLEA
modifications: not checked
For B1, the ratio of its own IC50 to that of the control peptide amounted to 242 in data set [3], 1.1 in data set [4], 2.37 in [5] and 28 in [6].

B2: HDM09A (peptide)
peptide: REALAQTHSAIAVI
notes: Synthetic peptide, 69.6% purity
Turning to B2, the “ratio of its own IC50 to that of the control peptide” value (from here on “ratio of its own IC50”) came out at 21.1 in data set [7], 0.49 in [8] and 200 in data set [9].

B3: HDM03C (peptide)
peptide: RNQSLDLAEQELVDCASQH
notes: Synthetic peptide, 60.1% purity
Turning to B3, the “ratio of its own IC50” value in data set [10] worked out at 0.16.

B4: HDM34 (peptide)
peptide: RNIQVRGLKQMKRVG
notes: Synthetic peptide, 74.7% purity
In the case of B4, the entries for the “ratio of its own IC50” value in data set [11], in [7] and in data set [9] were 3.7, 3.38 and 769, respectively.

B5: HDM49 (peptide)
peptide: DTVRAEMTKVLAP
notes: Synthetic peptide, 69.5% purity
In the case of B5, the entries for the “ratio of its own IC50” value in [10] and in data set [9] were 1.7 and 671, respectively.

B6: HDM01 (peptide)
peptide: IDLRQMRTVTPIR
notes: Synthetic peptide, 79.2% purity
For B6, the figures for the “ratio of its own IC50” value in [8] and in data set [12] were 16 and 19.2, respectively.

B7: HDM23A (peptide)
peptide: DGLEVDVPGIDPNACH
notes: Synthetic peptide, 66.7% purity
For B7, the “ratio of its own IC50” value in data set [12] is 347; in data set [10], 0.76.

B8: HDM48 (peptide)
peptide: TAIFQDTVRAEMTK
notes: Synthetic peptide, 79.1% purity
As to B8, the results for the “ratio of its own IC50” value in data set [7], in [8] and in data set [12] were 13.6, 15.7 and 211, respectively.

B9: HDM21 (peptide)
peptide: KPFQLEAVFEANQNT
notes: Synthetic peptide, 88.7% purity
Take B9: the entries for the “ratio of its own IC50” value in data set [7], in [13] and in data set [14] were 11.7, 92 and 11.2, respectively.

B10: Fel d 1 peptide EQVAQYKALPVVLENA (peptide)
peptide: EQVAQYKALPVVLENA
notes: Said to have been tested in an earlier study
For B10, in [15], the “ratio of its own IC50” value was determined as 0.97.

B11: HDM40A (peptide)
peptide: VSMEYDLAYKLGDLH
notes: Synthetic peptide, 66.9% purity
On to B11, for which the “ratio of its own IC50” value came to 6 in data set [7] and 2.29 in data set [8].

B12: HDM06 (peptide)
peptide: RYVAREQSCRRPN
notes: Synthetic peptide, 79.7% purity
Turning to B12, the results for the “ratio of its own IC50” value in data set [7] and in data set [10] were 30.4 and 0.86, respectively.

B13: HDM39A (peptide)
peptide: HDDVVSMEYDLAYKL
notes: Synthetic peptide, 80.9% purity
In the case of B13, the “ratio of its own IC50” value in data set [8] came out at 0.71; in [14], 76.2; in data set [10] it was 0.1.

B14: HDM21B (peptide)
peptide: RGKPFQLEAVFEANQNT
notes: Synthetic peptide, 82.6% purity
As to B14, the “ratio of its own IC50” value came out at 4.1 in data set [7], 13.5 in [13] and 0.78 in [14].

B15: HDM21A (peptide)
peptide: KPFQLEAVFEANQNTK
notes: Synthetic peptide, 90.1% purity
Regarding B15, the “ratio of its own IC50” value in [7] worked out at 10.3; in [13] it was 200; in [14], 52.2.

B16: HDM35 (peptide)
peptide: RGLKQMKRVGDAN
notes: Synthetic peptide, 84.0% purity
For B16, the “ratio of its own IC50” value in [7] was found to be 1.26.

B17: HDM30 (peptide)
peptide: DKFERHIGIIDLK
notes: Synthetic peptide, 81.4% purity
Consider B17, for which the “ratio of its own IC50” value in data set [8] stood at 6.2.

B18: HDM22A (peptide)
peptide: EAVFEANQNTKTAK
notes: Synthetic peptide, 90.3% purity
For the molecule B18, the entries for the “ratio of its own IC50” value in data set [7] and in data set [14] were 80 and 329, respectively.

B19: HDM26A (peptide)
peptide: DGVLACAIATHAKIR
notes: Synthetic peptide
Turning to B19, the results for the “ratio of its own IC50” value in [8], in data set [13] and in data set [10] were 16.3, 42.3 and 0.61, respectively.

B20: HDM02 (peptide)
peptide: RTVTPIRMQGGCG
notes: Synthetic peptide, 79.6% purity
For B20, the “ratio of its own IC50” value in [10] turned out to be 0.03; in data set [9], 80.

B21: HDM33 (peptide)
peptide: LDMRNIQVRGLKQ
notes: Synthetic peptide, 70.3% purity
On to B21, for which the entries for the “ratio of its own IC50” value in data set [11], in data set [7] and in data set [8] were 263, 41.5 and 46.5, respectively.
